Test [1] relates to Murine macrophage-like RAW 264.7 cells. The experiment in a line: Cellular HMGB1 and TN uptake. The test is classed as cell-based, mouse. As to conditions: 2 h. How it is done:
Highly purified recombinant HMGB1 and TN protein were labeled with either Alexa Fluor 555 or Alexa Fluor 488 using respective labeling kit (Cat. # A30007 or Cat. # A30006, Thermo Fisher Scientific) according to the manufacturer's instructions. Murine macrophage-like RAW 264.7 cells on cover slips were incubated with unlabeled or Alexa Fluor 555-labeled HMGB1 in the absence or presence of unlabeled or Alexa Fluor 488-labeled TN at 37° C. for 2 h. An endocytosis inhibitor, Dynasore (8.0 μM), or mAb8 (60 μg/ml) were added 30 min before the addition of HMGB1 or TN. Following extensive washings with 1×PBS, cells were fixed with 4% formalin for 20 min at room temperature and mounted on the slide using Vectashield Mounting Medium for Fluorescence with DAPI (Vector Laboratories, Inc., Cat. # H-1200) for nuclei staining (blue). Endocytic uptake of Alexa Fluor 555-labeled HMGB1 (red) or Alexa Fluor 488-labeled TN (green) was visualized via Carl Zeiss fluorescence microscope. To quantitate cellular uptake of HMGB1 and TN, macrophage cultures were incubated with recombinant HMGB1 and TN either individually, or in combination, at 37° C. for 2 h. Following extensive washing, cellular levels of HMGB1 and TN were measured by Western blotting analysis with reference to a house-keeping protein, β-actin.

Test [2] relates to murine peritoneal macrophages. In words: TN/HMGB1-induced macrophage cell death (trypan blue, LDH release). As to conditions: dynasore 10.0 μM, 16 h. The test is classed as cell-based, mouse. How it is done:
(§1) FIG. 12(A)-12(C): TN and HMGB1 cooperate to induce macrophage cell death. 12(A) Thioglycolate-elicited murine peritoneal macrophages were treated with TN (10 μg/ml) in the absence or presence of HMGB1 (0.5 μg/ml), TN-specific mAb8 (65.0 μg/ml), or dynasore (10.0 μM) for 16 h, and cell viability was assessed by trypan blue dye exclusion or LDH release assay. *, P<0.05 versus negative control; #, P<0.05 versus “+TN” or “+HMGB1” alone; &, P<0.05 versus positive control “+TN+HMGB1” group, n=6-10 per group. 12(B) Murine peritoneal macrophages were stimulated with TN (10 μg/ml) in the absence or presence of HMGB1 (1.0 μg/ml) for 16 h, and the cell-conditioned medium was assayed for ASC release by Western blotting analysis. SDS-PAGE gel indicated equivalent sampling loading. Bar graph represented average of three samples (n=3) from two independent experiments (N=2). *, P<0.05 versus negative controls (“−HMGB1−TN”); #, P<0.05 versus positive control (“+HMGB1” or “+TN” alone). 12(C) Differentiated human macrophages were stimulated with HMGB1 (1.0 μg/ml) and TN (10.0 μg/ml) in the absence or presence of TN-specific mAb (40 μg/ml) or dynasore (20.0 μM) for 16 h. Subsequently, cells were immunostained with Alexa Fluor 594-conjugated anti-ASC IgGs. Scale bars: 10 μm. Narrow arrows point to minute ASC puncta; Wide arrow points to a larger ASC speck. […]
On the technique in general: LDH in the medium is a marker of cell lysis.

For test [3], the system named is differentiated human macrophages. The experiment in a line: TN/HMGB1-induced formation of ASC foci/speck. The test is classed as cell-based. The following applies: dynasore 20.0 μM, 16 h. How it is done: as §1
A further test concerns the target T1, HMGB1 (Rattus norvegicus, UniProt P63159).
T1 construct: made in house; host or cells: E. coli BL21 (DE3) pLysS
T1 sequence (P63159 1-215): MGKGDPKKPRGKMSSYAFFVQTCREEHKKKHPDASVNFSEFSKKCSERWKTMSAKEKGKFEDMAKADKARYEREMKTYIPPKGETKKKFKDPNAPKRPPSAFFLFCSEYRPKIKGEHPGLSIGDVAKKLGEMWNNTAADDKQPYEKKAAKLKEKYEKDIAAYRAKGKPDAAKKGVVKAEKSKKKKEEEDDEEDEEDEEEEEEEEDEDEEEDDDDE
In words: OpenSPR assay of TN/HMGB1 interaction. The following applies: TN or HMGB1 conjugated to the sensor chip. The test is classed as binding. An excerpt:
The cDNA encoding for rat HMGB1 was cloned onto a pCAL-n vector, and the recombinant CBP-HMGB1 (rHMGB1) was expressed in E. coli BL21 (DE3) pLysS cells as previously described. Recombinant HMGB1 containing a ˜3 kDa calmodulin-binding peptide tag (CBP-HMGB1 fusion protein, 33 kDa) was expressed in E. coli, and purified to remove contaminating endotoxin by Triton X-114 extraction as previously described. Recombinant human TN corresponding to residue 22-202 amino acid (without the 21-amino acid leader signal sequence) with a C-terminal histidine tag were expressed in E. coli BL21 (DE3) pLysS cells and purified by histidine-affinity and Triton X-114 extraction to remove contaminating endotoxins. Recombinant TN and HMGB1 proteins were tested for LPS content by the chromogenic Limulus amebocyte lysate assay (Endochrome; Charles River), and the endotoxin content was less than 0.01 U per microgram of recombinant proteins.
We employed the Nicoya Lifesciences gold-nanoparticle-based Open Surface Plasmon Resonance (OpenSPR) technology (Kitchener, ON, Canada) to characterize protein-protein interactions following the manufacturer's instructions. […] The response units were recorded over time, and the binding affinity was estimated as the equilibrium dissociation constant KD using the Trace Drawer Kinetic Data Analysis v.1.6.1. […]

The subject of test [4] is Balb/C mice subjected to CLP sepsis. In words: Sepsis-induced tissue injury (lung histology, serum liver enzymes) after CLP. The test is classed as in vivo, mouse. The following applies: TN supplementation, 2 and 24 h post CLP.
In test [5] the test system is murine peritoneal macrophages. In words: LPS- or SAA-induced HMGB1 release in murine macrophages. The test is classed as cell-based, mouse. As to conditions: 16 h. How it is done:
(§2) Primary peritoneal macrophages were isolated from young male Balb/c (7-8 wks, 20-25 g) at 3 days after intraperitoneal injection of 2 ml thioglycollate broth (4%) as previously described. Briefly, mice were sacrificed by CO2 asphyxiation, and the abdomen region was immediately cleaned with 70% ethanol before making a small excision to expose the abdominal wall, and to insert a catheter into viscera-free pocket to wash out peritoneal macrophages with sucrose solution (11.6%, 7.0 ml). […] The intracellular and extracellular levels of HMGB1, TN, or various other cytokines/chemokines were respectively determined by Western blotting analysis, and Cytokine Antibody Arrays as previous described.
(§3) The levels of TN in human or murine serum were determined by Western blotting analysis using commercial rabbit mAb against the C-terminus of human TN (Abcam) or our home-made murine mAbs (mAb8) against recombinant human TN. Similarly, the cellular and extracellular levels of TN and HMGB1 in murine macrophage and human monocyte cultures were determined by Western blotting analysis using rabbit polyclonal or monoclonal antibodies. […] The relative band intensity was quantified using the UN-SCAN-IT Gel Analysis Software Version 7.1 (Silk Scientific Inc., Orem, UT, USA).

The subject of another test is human blood monocytes. In words: LPS- or SAA-induced HMGB1 release in human monocytes. The test is classed as cell-based. The following applies: 16 h. How it is done: as §2, §3
Another test deals with macrophage cultures. The experiment in a line: Cytokine Antibody Array of macrophage cultures. The test is classed as cell-based, mouse. The following applies: even at 20 μg/ml. As to the method:
(§4) Primary peritoneal macrophages were isolated from young male Balb/c (7-8 wks, 20-25 g) at 3 days after intraperitoneal injection of 2 ml thioglycollate broth (4%) as previously described. Briefly, mice were sacrificed by CO2 asphyxiation, and the abdomen region was immediately cleaned with 70% ethanol before making a small excision to expose the abdominal wall, and to insert a catheter into viscera-free pocket to wash out peritoneal macrophages with sucrose solution (11.6%, 7.0 ml). Human blood was purchased from the New York Blood Center (Long Island City, NY, USA), and human peripheral blood mononuclear cells (HuPBMCs) were isolated by density gradient centrifugation through Ficoll (Ficoll-Paque PLUS, Pharmacia, Piscataway, NJ, USA) as previously described. Murine macrophages and human monocytes (HuBPMCs) were cultured in DMEM supplemented with 1% penicillin/streptomycin and 10% FBS or 10% human serum. When reaching 70-80% confluence, adherent cells were gently washed with, and immediately cultured in, OPTI-MEM I before stimulating with crude LPS, purified SAA, HMGB1, in the absence or presence of human TN. The intracellular and extracellular levels of HMGB1, TN, or various other cytokines/chemokines were respectively determined by Western blotting analysis, and Cytokine Antibody Arrays as previous described. […]

A further test concerns primary human monocytes. The experiment in a line: Cytokine Antibody Array of human monocyte cultures. As to conditions: TN 10 μg/ml, 16 h. The test is classed as cell-based. How it is done: as §4
The subject of test [6] is murine peritoneal macrophages. In words: ASC release in macrophage cultures (Western blotting). The test is classed as cell-based, mouse. As to conditions: 16 h. How it is done:
as §2, §3
For orientation: Immunoblotting shows a protein as a band on a membrane.

The mark [7] stands for this setting: Dynasore 8.0 μM or mAb8 60 μg/ml.

In the case of `O=C(N/N=C/c1ccc(O)c(O)c1)c1cc2ccccc2cc1O` [dynasore], in test [1] (setting [7]), the “HMGB1-enhanced cellular uptake of TN” value is listed as “similarly attenuated” and the “TN-mediated enhancement of cellular HMGB1 uptake” value is on record as “prevented”. The “TN/HMGB1 induced cell death” value in test [2] is given as “inhibit”. Moreover, the “TN/HMGB1 induced ASC aggregation” value in [3] was “inhibit”.

B1: tetranectin (protein, UniProt P05452 22-202, looked up)
Tetranectin: EPPTQKPKKIVNAKKDVVNTKMFEELKSRLDTLAQEVALLKEQQALQTVCLKGTKVHMKCFLAFTQTKTFHEASEDCISRGGTLGTPQTGSENDALYEYLRQSVGNEAEIWLGLNDMAAEGTWVDMTGARIAYKNWETEITAQPDGGKTENCAVLSGAANGKWFDKRCRDQLPYICQFGIV
Consider B1, for which the “estimated equilibrium disassociation constant (KD) between TN and HMGB1” value with HMGB1 was 1.21 to 2.88 nM. Also, the “sepsis-induced injury in the liver” value in test [4] (ALT and AST at 28 h) is given as “marked attenuation”. In [4] (analysis at 28 h), the “sepsis-induced injury in the lung” value was “marked attenuation”. Further, in test [5], the “LPS- and SAA-induced HMGB1 release” value is on record as “dose-dependently inhibited”. For the same molecule, the “LPS- and SAA-induced HMGB1 release” value in the test on human blood monocytes is “dose-dependently inhibited”. Also, the “LPS-, SAA-, or HMGB1-induced release of other cytokines and chemokines” value in the test on macrophage cultures is given as “did not inhibit”. Also, in the test with primary human monocytes, the “release of ENA-78 (CXCL5, LIX)” value was “reproducibly and specifically induced the release”; the “release of GRO (CXCL1 or KC)” value was “reproducibly and specifically induced the release”. For the same molecule, in test [1] (TN at physiological concentrations), the HMGB1 cellular uptake entry is listed as “markedly enhanced”. Also, in test [6], the “ASC release, added individually” value is on record as “weakly induced” and the “ASC release, co-addition with HMGB1” value is recorded as “synergistic enhancement”.
